Protein production data for 19 sequences are collected here from a protein production outcome set (Wang et al. 2014).

The nature of the data set: label from the status in PepcDB records.
“MAPLGGAPRLVLLFSGKRKSGKDFVTEALQSRLGADVCAVLRLSGPLKEQYAQEHGLNFQRLLDTSTYKEAFRKDMIRWGEEKRQADPGFFCRKIVEGISQPIWLVSDTRRVSDIQWFREAYGAVTQTVRVVALEQSRQQRGWVFTPGVDDAESECGLDNFGDFDWVIENHGVEQRLEEQLENLIEFIRSRL”: the protein production result is “failed”.

In the case of “MAPNASCLCVHVRSEEWDLMTFDANPYDSVKKIKEHVRSKTKVPVQDQVLLLGSKILKPRRSLSSYGTDKEKTIHLTLKVVKPSDEELPLFLVESGDEAKRHLLQVRRSSSVAQVKAMIETKTGIIPETQIVTCNGKRLEDGKMMADYGIRKGNLLFLASYCIGG”, the protein production result was “failed”.

For the sequence “MAPQASTRENACRSEMLSASSRGSGWPCQENPDLSIPPLRPIALSRRNGWWSGAAAVKLASGHCTGRWKMSFWYVVDAVAVGIILPWIIATYRLLEAFKRGTGAGLTKWAIYAAVCVPAMLLVMWGIQNLR”, the protein production entry was “failed”.

Consider “MAPRTNRPRTNRPRTGRPPAPDAPAAPDAPTAPDARRRRLPMRFLLPSLLLLAVMAMLMLRGFVHSEILADHRIRPPAATDQVPEKILDGGPVIDTRGGRTTSLSLPDHRLVLTFDDGPDPQWTPKVLDVLKKHHAHAVFFVTGTMTSRHPDLVRRLVAEGHEVGVHTFNHPDLAYQSKKRIDWELSQNQLALAGAAGIRTSLFRPPYSSFADAMDNESWPVTEYIGTRGYITVVNNTDSEDWQKPGVDEIIRRATPRGGKGAVVLMHDSGGDRHQTVQALDRFLPELQRRGYEFENLSEALGAPSAHTPVTGVDRWKGNAWIFLVQAADRITGMLVVGLAVIGGLVLTRFGLMLLLSGTHARRVRRPDFRWGPAPVTEPVSVLVPAYNEAKCIENTVRSLTASEHPVEVIVVDDGSSDGTARLVESLRLPDVRVVRQHNAGKPAALNRGLANARHDLIVMMDGDTVFEPATVRELVQPFADPRVGAVAGNAKVGNRDSLIGAWQHIEYVMGFNLDRRMYDLLRCMPTIPGAVGAFRRSALERVGGMSDDTLAEDTDITMALHRDGWRVVYAEKARAWTEAPESVQQLWSQRYRWSYGTMQAIWKHRRALVERGPSGRFGRVGLPLVALFMVVAPLLAPLIDVFLLYGVIFGPTQKTVLAWLGVLAVQAVCAAYAFRLDRERMTHLVSLPLQQILYRQLMYVVLLQSWITALVGGRLRWQKLRRTGVVEAPGSIPQQRTAGSESERRPVG”, for which the protein production entry is given as “failed”.

As for “MAPVIRRAKEIDLYCLNSLMYKLHDEHHQQCPDLFKTASEIEEEKSIARYLDDPECMVYVAEMDDVIIGFITGHFCELISTVSKLVMMATIDELYIEKEYRREGVAEQLMMRIEQELKDYGVKEIFVEVWDFNKGALEFYNKQGLNEHIHYLRKPLNRLEHHHHHH”, the protein production entry is recorded as “not failed”.

Regarding “MAQAQTQGQEEEQKKKILIVVTHGPEDLDRTYAPLFMASISASMEYETSVFFMIKGPKLLDKKWQEEERKKGGNPFIHFFDMAKENGVKMYVCVQSLKDMCHMKEDDVVEGIELVGGSTLIDLTLEADRTLFF”, the protein production entry is on record as “not failed”.

For “MAQEDVTAVATNGAGPVETHLVFTEFKQMLLVEAQKVGDAVTFYKSAFGAIESGHSLYPKRKLDQELPHVLSSELNLAGSSFVVCDVSSLPGFSTAKSEGSGVTFLLGTKDAEAAVAKAVDAGAVKVEVTEAEVELGFKGKVTDPFGVTWIFAEKKTVITDENKEV”, the protein production entry is reported as “not failed”.

In the case of “MAQEVSPESYKDLVLFLATAGIVAPIFKRLKINPILGYLLAGVILGPFGLGRFIPYAPWLDYFTVDNPDEIAQLAEFGVVFLLFMIGLELSWERLRLMRRWVFGLGAVQVIGCSLALGAGGMLLGLEPVVALTIGAALTLSSTAIAVPVLAERRRLHSEAGRATFSVLLFQDLAVAPILITLAILGRGNGSFQLQDLLALAPAALGLAVIVLVGRLALRPMLKSVAKAKSEEMFMAACLLVIIGAGMVAALSGLSMALGAFVAGVLLAETEYRHEVEVKIEPFKGLLLSLFFVSLGIRLDLSLLAAQPAAILGTALGLLVLKTAVVFGSGLLMGLNRRAAIEAALILAAGGEFAFVLLDNAMSAQVVPPAIGQAVLVSATLTMFLIPGLAALGGYLGRKNAPLPVSEAPPSTANEPDRLGPEPAGQVLVIGYGRVGRLVGDMLGRHDLPWIAVEREARLVEQGRRDGARIYYGDASRLELLERCGLATARAVVVTMDAFEVAEAVVVAARGARPDVPIVVRARDARHAARLYELGATDAVPETIEASLQLSEAVLVDIGVPMGLVIASIHERRDEYRKKLNRPDALGGRRRRLRDATLR”, the protein production entry is recorded as “failed”.

As for “MAQIPFDLKHADFARLAEVGLRLPGLREVKTLTQTSWIEAPTTIIGTVVSGAELQVGAFCSLSGGTLNNVHIGRYSSIAAGTIIGVHEHPTSWLTTSRTSYWPQVYGWDELIAPDRAAEIRAGKRPFTRSCPITEIGHDVWIGQGCFIKSGVRIGHGSVIGARATVTKDVPPYSIVLGTPGRVVRTRVPEPLIERLLAVEWWRYSIYDLFAAPFDDVARALDVIEDRIAEGAIKPYEAPLVTPADLAEPLGLAARLAARFPRPLARAS”, the protein production result is reported as “failed”.

In the case of “MAQIVTSTKSCTVNPLRMSQPLGAALAFMGLRNCMPLLHGSQGCTSFGLVLFVRHFRESIPLQTTAMSEVATVLGGFENVEQAIVNIVGRTKPDVIGICTTGVTEIKGDDLDGYIKMVRANHPELANVALVPVSTPDFKGAFEDGFAATVTRIVETLVETPAEGAAPDADRINVLAGSHLTPGDIDELRDIIEAFGLVPTFLPDISGSLDGHVPDDFTPTTHGGVSVAEVVAMGGAGHTLAFGEHMRKAAAALEAKAGVPFTLLSRVTGLAAADELMATLAKISGRPVPPKYRRQRSQLVDAMLDGHFYFGGKSVAIGAEPDMLLNIGGWLADMGCTVSAAVTTTTSPSLAQVPSDEVLIGDLEDLERRAEDCDLLVTHSHGRQAAERLSVPLFRMGLPMFDRLGAVHQVAVGYRGTRDLIFAIGNLFIANIKEPDVNSWRSASACPDQTDAPAKAH”, the protein production result is “failed”.

Regarding “MAQNNENALPDITKSITLEAPIQKVWETVSTSEGIAKWFMPNDFQLKEGQEFHLQSPFGPSPCKVLAVQAPTELSFEWDTEGWVVTFQLEDLGEKTGFTLIHSGWKEPNEVIGKANEKSSVVRGKMDGGWTGIVNERLRKAVEELEHHHHHH”, the protein production result is listed as “not failed”.

On to “MAQTEKLTDYVNPFVGTDGYGNVYPGAQIPFGGIQISPDTDSRFYDAASGYKYNHLTLMGFSLTHLSGTGIPDLGDFLFIPGTGEMKLEPGTHEDPDQGYRSRYSHDKEWASPNYYAVELADYGVKAEMTSGVRSGMFRFTYPESDNAFIMIDMNHTLWQSCEWSNLRMINDSTITGYKLVKGWGPERHVYFTLEHHHHHH”, for which the protein production result is listed as “failed”.

As for “MARCAVFLEELWFALFAWVPTVLGTAVRLVAWRPLFRLLGGVCGKVRFGQSLTLQGAGHMRLADGVRLGKGCHLYARTGELVMGENAALNINVVVDADGGTVRIGAHATVGPGTVIRAANHRFDRLDTPIMFQGHEYGEVVIDDDVWIAANCTVVPGVHIGRGAVVGAGAVVTKDVEPYTVVAGVPARFIRRRGPAE”, the protein production result is “failed”.

Regarding “MARFALVLHAHLPYVRAHGMWPFGEETLYEAMAETYLPLIRVLERLRAEGVEAPFTLGITPILAEQLADARIKEGFWAYAKDRLERAQGDYQRYRGTALEASARHQVAFWELTLDHFQRLSGDLVAAFRKAEEGGQVELITSNATHGYSPLLGYDEALWAQIKTGVSTYRRHFAKDPTGFWLPEMAYRPKGPWKPPVEGPPEGVRPGVDELLMRAGIRYTFVDAHLVQGGEPLSPYGEAALGPVESQEATYHVHELESGLRVLARNPETTLQVWSADYGYPGEGLYREFHRKDPLSGLHHWRVTHRKADLAEKAPYDPEAAFAKTEEHARHFVGLLERLAGRHPEGVILSPYDAELFGHWWYEGVAWLEAVLRLLAQNPKVRPVTAREAVQGPAVRTALPEGSWGRGGDHRVWLNEKTLDYWEKVYRAEGAMREAARRGVLPEGVLRQAMRELLLLEASDWPFLMETGQAEAYARERYEEHARAFFHLLKGASPEELRALEERDNPFPEADPRLYLFREA”, the protein production entry is on record as “not failed”.

In the case of “MARFRDELLLASLIALAALILLRGLGNDSLGFPDADRILMDSVFLRDLLVDLPLADPIGYTKDYFVQYPALSIGYRPPFFPFVAALLQLLVGPEMWATRLALFGFVLVGVASSYFWIRRHYGPWPAWGATALWLTTPYLAQWGWYTMAELTVLSMALLAANLFDKYLAEGKPALLYWSVLAVALAAWTKQTALFLLPWFAAMALAEGRFLAILRRREAWIAAFGLGVLLAPLVAMTLMLGDLNLEQSVGGTNRWTLANWTVRLKTILHHLTPPLLALSVVGAIWAGLKRDRHGLPFALLIVVVYGVFSYISGKNDRYPIFWVPAFALFAVLPFHFLSQRLPAKATVPALALGVGVLAAYQGSLAFTKTPSYATGYKEAAAYVLDSSETPIVFVDAYNNGYFTYFMRALDQGRSMVVLRGDKLLSSSAINMATKVEVHAEGRQEIEEIFRSLGVSLIVVEERNYTGLDVHDELRRFLKTDSFELVQAIPIHSNRTVSVLADFPPLGGQDLLVYRYKDAKTLTSGVVSLRLPVVGQTLSVDMETMMERRRAHP”, the protein production result is “failed”.

In the case of “MARGEGEFYLAGRRLTGFLSAMTYAATTYSSFMIVGLVGLAYFTGIGSLVFELAYLVATVILLSLFSRRVWRMSRERGWVSPGEMLADLLGSPWVALTASLVFLVSLVPYASAQLKGIAETIVAIAGYSPGDNTAYMVAVGVALLILLAWSLLAGVRGVVLTDAFQGLWMLTAGSLLFLWLASRVFSKSGASEVLSAMESAGLFDMWSATLLIGFVTPWVFFAVTNPQVVQRLYMPKDEESLRRMILYFFLFGLYYTVLVVAIGFLARAGVELGILSIEPQGRDQVTPQLLSLAHPLLAALVFTSIVAASVSTADSIILALASSASRDIGLLVLRLDEKGRLRLGYAAAALFTVLMAVFAATRIGYIVQLSVLSSVMLLGLAPVTIAAWVGLRVHPALAVASIATGPVLVAANVLYSLAVGGEVSLSPAKQVLGVPISVWVLAISLALTAAGIALVRGRR”, the protein production result was “failed”.

With “MARGIWGVDSAQVVTDQLFQCVRTELGYPKFWGRYLSEVPNVSEGLTRDEIVRIRNYGVKVLPIYNAFREAVGYANGQVAARNAVFHARRLGIPKNKLLFANIEDFFAVDAAWIAAWVETLYPTGYRPGLYADPTKGDFAAAYCEAVSRNNQVAVQAVIWSAAPRPGTTKEQKAPRYQPAAPPCSANVWVWQYGRDAEVCPVDTNLADRRLLDFLY”, the protein production entry is “not failed”.

For “MARHLITSALPYINGIKHLGNMVGSMLPADVYSRYLRQRGHDVLYICATDEHGTPAELAAKERGLPVDEFCAQAHDAQKAVYDGFELAFDYFGRSSSEQNREITQHFARRLNENGFIEERAIRQVYSPADGRFLPDRYVEGTCPHCGYDKARGDQCENCTRVLDPTDLINPRSAISGSTDLEVRETKHLFLLQSKLQHEVEEWVARHEEEWPQLASSIARKWLNEGLHDRAITRDLDWGVPVPADTWPELAAEGKVFYVWFDAPIEYIGATKEWSDLDPENRDWKSWWYDADSGENPVRYTEFMAKDNVPFHTVMFPATELGVREPWKKVDYVKAFNWLTYYGGKFSTSQKRGVFTDHALEILPADYWRYFLIANAPESDDSSFTWEHFTATVNKDLADTLGNFVNRVLSFSKKRFGEEVPAGAPAGESETKLGEEIAALLAEYESHMETLQFRKAAAALRALWSAGNSYLEEKAPWLEIKTNPEGAALTLRTAMNLIHLYSVVSEPFIPASSKAMRSAFALSEDTATWVTQDEAKSLDSVPAGTPFTVPPVLFAKITDEDLESYKERFGGAPE”, the protein production result is recorded as “failed”.

As for “MARIKLDFPDTAFTFETRLPVRITDINGANHLGNDALISMLSEARAQFLVEHGIEEAGHDGVGIIVTDLATMYQGESFYPDMLRFEVGLMDFNKYGGDFVFRVTKADSGQPVALAKYGFVFFNYQSREVTPMPESFRARFA”, the protein production entry is reported as “failed”.
